# Biological target: clamp-stabilised KoRV envelope (Env-clamp) (koala retrovirus (KoRV-A))
# Experiment: SEC + other: negative-stain electron microscopy
substance,measurement,value
clamp-stabilised KoRV envelope (Env-clamp),stoichiometry N,3

# From publication doi:10.1101/2021.05.10.443397
